Experimental data from the nanobody polyreactivity screen of Harvey et al. (2022).

Experiment: yeast display, Sf9 membrane polyspecificity reagent, FACS + sequencing; frameworks hold sequencing errors
Summary of the method: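 Sorting gates, low and high (top ~1%), were placed on anti-HA fluorescence to track expression and on streptavidin fluorescence to track reagent binding. A clone's polyreactivity label is taken from the gate it came out of. The reagent was 10% biotinylated, detergent-solubilized Sf9 membrane, applied for 1 hour at 4 °C to galactose-induced yeast display cells.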

Sequence	polyreactivity (PSR sort gate)
QVQLVESGGGLVQAGGSLRLSCAASGFTFSSYTMGWYRQAPGKEREFVAAISRRTGRTYYADSVKGRFTISRDYAKNTVYLQMNSLKPEDTAVFYCAADLYYYGFFWDFGDGFDYWGQGTQVTVSS	high polyreactivity
QVQLVESGGGLVQAGGSLRLSCAASGFTFSSYTMGWYRQAPGKERELVAAISRRTGRTYYADSVKGRFTISRDNAKNTVYLQMNSLKPEDTEVYYCAARPYWSYRRYDYWGQGTQVTVSS	high polyreactivity
QVQLVESGGGLVQAGGSLRLSCAASGFTFSTNAMGWYRPAPGKERELVAAISPDGGTYYADSVKGRFTISRDNAKNTVYLQMNSLIPEDTAVYYCAAVWGRGVWDLYDYWGQGTQVTVSS	low polyreactivity
QVQLVESGGGLVQAGGSLRLSCAASGFTFSTYAMGWYRQEPGKEREFVATISWRGTNTYYADSVKGRFTISRDNAKNTVYLQMNSLKPEDTAVYDCAARRRSGYGANDYWGQGTQVTVSS	high polyreactivity
QVQLVESGGGLVQAGGSLRLSCAASGFTFSVYAMGWSRQAPGKERELVAAITSDGITNYADSVKGRFTISRDNAKNTVYLQMNSLKPEDTAVYYCNADPGYVRGYDYWGQGTQVTVSS	low polyreactivity
QVQLVESGGGLVQAGGSLRLSCAASGFTFSVYAMGWYRQAPGKERELVADIDWSGGSTYYADSVKGRFTISRDNAKNTVYLQMNSLKPEDTAVYYCAADYYYPDSYVQGTSGEYWGQGTQVTVSS	low polyreactivity
QVQLVESGGGLVQAGGSLRLSCAASGFTFSVYAMGWYRQAPGKERELVASITNGGTTYYADSVKGRFTISRDNAKNTVYLQMNSLKPEDTAVYYCAAKLYSWYHKFVNPTYGYWGQGTQVTVSS	high polyreactivity
QVQLVESGGGLVQAGGSLRLSCAASGFTFSWNAMGWYRQAPGKEREFVAAITSSGGSTYADSVKGRFTISRDNAKNTVYLQMNSLKPEDTAVYYCAAGGFSQHGHGYWGQGTQVTVSS	high polyreactivity
QVQLVESGGGLVQAGGSLRLSCAASGFTFSYSAMGGYSQAPGKERELVAAISRSGSGTSYADSVKGRFTISRDNAKNTVYLQMTSLKPEDTAVYYCAARGGTTRYGNDYWGQGTQVTVSS	high polyreactivity
QVQLVESGGGLVQAGGSLRLSCAASGFTFSYYAMGWYREAPGKERELVAAISQSGGSKYYADSVKGRFIISRDNAKNTVYLQMNSLKPEDTAVYYCNRGLRSHQSDDYWGLGTQVTVSS	high polyreactivity
QVQLVESGGGLVQAGGSLRLSCAASGFTFSYYAMGWYRKAPGKEMELVAAINWNGGSTYYADSVKGRFTISRDNAKNTVYLQMNSLKPEDTAVYYCNARQSYRYTQHGYWGQGTQVTVSS	high polyreactivity
QVQLVESGGGLVQAGGSLRLSCAASGFTFSYYAMGWYRQAPAKEREVVAAISRSGGSTYYADSVKGRFTISRDNAKNTVYFQMNSLIPEDTAVYYCATDLYYRHGYCGQGTQVTVSS	high polyreactivity
QVQLVESGGGLVQAGGSLRLSCAASGFTFSYYAMGWYRQAPGKERELVAAISWSGGRTYYADSVKGRFTISRDNAKNTVYLQMNSLKPEDTAVYYCAVVYYGSIFVLEYDYWGQGTQVTVSS	high polyreactivity
QVQLVESGGGLVQAGGSLRLSCAASGFTFSYYAMGWYRQAPGKERELVAAITSTGGSTYYADSVKGRFTISRDNAKNTVYLQMNSLKPEDTAVYYCATRGANRTGYKDDYWGQGTQVTVSS	high polyreactivity
QVQLVESGGGLVQAGGSLRLSCAASGFTFSYYAMGWYRQATGKETELVAGIDYSGGSTYYADSVKGRFTISRDNAKNTVYLQMNCLKPEDTAVYYCNAVYARIYYYSHGYDYWGQGTQVTVSS	high polyreactivity
QVQLVESGGGLVQAGGSLRLSCAASGFTFSYYGMVWYRQAPWKERELVAGISRGGSTYYADSVKGRFTISRDNAKNTVYLQMNSLKPEDTAVYYCAAAERLRHGLKFDYWGQGTQVTVSS	high polyreactivity
QVQLVESGGGLVQAGGSLRLSCAASGFTFSYYPMGWYRLAPGKERELVAAITSGGSTYYADSVKGRFTISRDNAKNTVYLQMNSLKPEDTAVYYCNARGYGTLNVRRERMDYWGQGTQVTVSS	high polyreactivity
QVQLVESGGGLVQAGGSLRLSCAASGFTFTAYAMGLYRQAPGKERQLVAAINWSGSRTYYADSVKGRFTISRDNAKNTVYLQMNSLKPEDSAVYYCNTPTSKSSYRHYDYWGQGTQVTVSS	high polyreactivity
QVQLVESGGGLVQAGGSLRLSCAASGFTFTAYAMGWYRQAPGKERELVAAISSGGSTYYADSVKGRFTISRDNAKNTVYLQMNSLKPEDTAVYYCAAVGVYTVKREYWGQGTQLTVSS	low polyreactivity
QVQLVESGGGLVQAGGSLRLSCAASGFTFTAYAMGWYRQAPGKERELVAAISSGGSTYYADSVKGRFTISRDNAKNTVYLQMNSLKPEDTAVYYCSAVGVYTVKRDYWGQGTQVTVSS	low polyreactivity
QVQLVESGGGLVQAGGSLRLSCAASGFTFTDNAMGWSRQAPGKERELVAAISRGVGTNYADSVKGRFTISRDNAKNTVYLQMNSLKPEDTAVYYCAAGGRSVRYNYWGQGTQVTVSS	high polyreactivity
QVQLVESGGGLVQAGGSLRLSCAASGFTFTEYTMGRYRQAPGKERELVATISWSGGSTYYADSVKGRFTISRDNAKNTVYLQMNSLKPEDTAVYYCAKDQWPWVRDSLYTLRYDYWGQGTQVTVSS	low polyreactivity

Sequence	polyreactivity (PSR sort gate)
QVQLVESGGGLVQAGGSLRLSCAASGFTFTGNVMGWYRQAPGKERELVAAISSRGVSTYYADSVKGRFTISRDNAKNTVYLQMNSLKPEDTAVYYCAVSRIVDFGQKMYYWGQGTQVTVSS	high polyreactivity
QVQLVESGGGLVQAGGSLRLSCAASGFTFTGYAIGWYRQAPGKERELVAAITSNTGGTYYADSVKGRFTISRDNAKNTVYLEMNSLKAEDTAVYYCAAGHSGGQVDTIFQGMDYWGQGTQVTVSS	low polyreactivity
QVQLVESGGGLVQAGGSLRLSCAASGFTFTKYAMGWYRQAPGKERELVAAISGRGGSTYYADSVKGRFTISRDNAKNTVYLQMNRLKPEDTAVYYCAKYLYTVAGYNYWGQGTQVTVSS	high polyreactivity
QVQLVESGGGLVQAGGSLRLSCAASGFTFTPYGMGWYRQAPGKERALVAAITWNGGRTYYADSVKGRFTISRDNAKNTVYLQMNSLKPEDTAVDYCAAVAWSWQKRGYWGQGTQVTVSS	high polyreactivity
QVQLVESGGGLVQAGGSLRLSCAASGFTFTRNAMGLYRQAPGKERELFAAISKRGGTTYYADSVKGRFSISRDYAKNTVYLQMNSLKPEDTAVYYCAKDGGITGGYWGQGSQVTVSS	high polyreactivity
QVQLVESGGGLVQAGGSLRLSCAASGFTFTRNAMGWYRQAPGKERELVAAISSSGTSTYYADSVKGRFTISRDNAKNTVYLQMNSLKPEDTAVYYCAKDFYRRYYSWGLGTQVTVSS	high polyreactivity
QVQLVESGGGLVQAGGSLRLSCAASGFTFTRNVMGWYRQAPGKERELVAAINASGGRTYYADSVKGRFTISRDNAKNTVYLQMNSLKPEDTAVYYCAARDTQLGGSRGGSWGQGTQVTVSS	high polyreactivity
QVQLVESGGGLVQAGGSLRLSCAASGFTFTRYAKGWYRQAPGKERELVAAISQNGGSTYYADSVKGRFTISRDNAKNTVYLQMNSLKPEDTAVYYCYAGVRRTIAFDYWGQGTQVTVSS	high polyreactivity
QVQLVESGGGLVQAGGSLRLSCAASGFTFTRYGMGWYRQAPGKERELVAGISSGGSTNYADSVKGRFTISRDNAKNTVYLQRNSLKPEDTAVYYCAARAKRYNVRFDYWGQGTQVTVSS	high polyreactivity
QVQLVESGGGLVQAGGSLRLSCAASGFTFTRYTMGWYRQAPGKERELVAHITSGDSTNYADSVKGRFTISRDNAKNTVYLQMNSLKPEDTAVYYCNAEVKGFFYDYDYWGQGTQVTVSS	low polyreactivity
QVQLVESGGGLVQAGGSLRLSCAASGFTFTSNAMGWYRQAPGKEREFVADISNIGGDTTYADSVKGRFTISRDNAKNTVYLQMNSLKPEDTAVYYCKADFAFIENDYWGQGTQVTVSS	low polyreactivity
QVQLVESGGGLVQAGGSLRLSCAASGFTFTSNAMGWYRQAPGKEREFVADISNIGGDTTYADSVKGRFTISRDNAKNTVYLQMNSLKPEDTAVYYCNADFAFIENDYWGQGTQVTVSS	low polyreactivity
QVQLVESGGGLVQAGGSLRLSCAASGFTFTSNIMGWYRQATGKERELVADISASDGRTYYADSVKGRFTISRDNAMNTVYLQMNSLKPEDTAVYYCNVSSRRLRGLDYWGQGTQVTVSS	low polyreactivity
QVQLVESGGGLVQAGGSLRLSCAASGFTFTSYTMGWYRQAPGKERELVAAISYSGGNTYYADSVKGRFTISRDNAKNTVYLQMNSLKQEDTAVYYCAARYWYDSSNYSYDYWGQGTQVTVSS	low polyreactivity
QVQLVESGGGLVQAGGSLRLSCAASGFTFTSYVMGWSRQAPGKEREFVAAITRSAGGTYYADSVKGRFTISRDNAKNTVYLQMNSLKPEDTAVYYCAAVYRSGSRYYLGWYNYWGQGTQVTVSS	high polyreactivity
QVQLVESGGGLVQAGGSLRLSCAASGFTFTTNAMGWYRQAPGKERELVAAISKRGTRTYYADSVKGRFTISRDNAKNTVYLQMNSLKPEDTAVYYCAAASVAGDKFDYWGQGSQVTVSS	high polyreactivity
QVQLVESGGGLVQAGGSLRLSCAASGFTFTTYAMGWYRQAPGKEREFVAAITKRGGRTYYADSVKGRFTISRDYAKNTVYVQMNSLKPEDTAVYYCNKVVHSFPFPYRYDMDYWGQGTQVTVSS	high polyreactivity
QVQLVESGGGLVQAGGSLRLSCAASGFTFTTYAMGWYRQAPGKERELVARISRRSGSTYYADSVKGRFTISRDNAKYTVYLQMNSLKPEDTAVYYCNADVDRSTTIFDYWGQGTQVTVSS	high polyreactivity
QVQLVESGGGLVQAGGSLRLSCAASGFTFTWYAMGWYRQAPGKERELVASISRSGGSTYYADSVKGRFTISRDNAKNTVYLQMNSLKPEDTAVYYCAAEIWLEYVGYDYWGQGTQVTVSS	high polyreactivity
QVQLVESGGGLVQAGGSLRLSCAASGFTFTWYVMGWYRQAPGKERELVAAISRSGGSTYYADSVKGRFTISRDNAKNTVYLQMNSLKPEDTAVYYCAAVGTSRYDYWGQGTQGTVSS	high polyreactivity
QVQLVESGGGLVQAGGSLRLSCAASGFTFTYNAMGWYRKAPGKERELVAALTANGGGTNYADSVKGRFTISRDNAKNTVYLQMNSLKPEDTAVYYCAATIVVAVFESLGFYWYTEDNYWGQGTQVTVSS	low polyreactivity
